Test results as given in patent US20140087995A1 (published 2014).
Numbered stars: 1 amine (or outer) side, 2 acyl side, 3 side chain; on linkers, the order of the positions; unused ones are H or OH. Bridge positions count the residues as written; N and C are the ends. Side chains are listed from the residue outwards. Ends that are not written are not given here. * marks the point of attachment. C20 diacid = O=C(O)CCCCCCCCCCCCCCCCCCC(=O)*; γGlu = O=C(O)[C@H](CCC(=O)[*:2])N[*:1]; AEEA = NCCOCCOCC(=O)O

Assays:
[1] = molecular target: T1, human calcitonin receptor (human, UniProt P30988 25-474); test: SPA competition vs 125I-calcitonin, membranes of BHK cells with human calcitonin receptor (Assay VII)
T1 construct: whole, on cells; Assayed as cell membranes of BHK tk'ts 13 cells stably transfected with the human calcitonin receptor (Assay VII); also called hCTR; hCT
T1 sequence (looked up): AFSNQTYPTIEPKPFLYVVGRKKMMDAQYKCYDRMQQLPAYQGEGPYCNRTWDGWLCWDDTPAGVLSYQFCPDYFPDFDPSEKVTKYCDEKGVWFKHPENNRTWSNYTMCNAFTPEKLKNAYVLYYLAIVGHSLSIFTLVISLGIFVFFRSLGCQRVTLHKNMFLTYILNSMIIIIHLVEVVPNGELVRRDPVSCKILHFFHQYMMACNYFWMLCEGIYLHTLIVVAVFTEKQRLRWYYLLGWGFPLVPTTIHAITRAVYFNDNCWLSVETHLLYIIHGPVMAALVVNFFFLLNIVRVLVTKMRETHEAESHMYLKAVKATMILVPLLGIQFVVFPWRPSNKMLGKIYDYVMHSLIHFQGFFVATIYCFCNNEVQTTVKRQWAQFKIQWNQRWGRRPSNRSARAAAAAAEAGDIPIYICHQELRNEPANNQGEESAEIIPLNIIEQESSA
Description: Membranes were prepared in the following way; the cells were rinsed with PBS and incubated with Versene for approximately 5 min before harvesting. The cells were flushed with PBS and the cell-suspension was centrifuged for 5 min at 1000 rpm. Cells were homogenized (Ultrathurrax) in a buffer containing 20 mM Na-HEPES and 10 mM EDTA (pH 7.4) and centrifuged at 20.000 rpm for 15 min. The resulting pellet was resuspended, homogenized and centrifuged (20.000 rpm, 15 min) in a buffer containing 20 mM Na-HEPES and 0.1 mM EDTA (pH 7.4, buffer 2). The resulting pellet was resuspended in buffer 2 and protein concentration was measured (BCA protein Assay, Pierce). The homogenate was kept cold during the whole procedure. The membranes were kept at −80° C. until use. Assay was performed in a 384 well Optiplate (PerkinElmer) in a total volume of 40 ul. Membranes were mixed with SPA beads. Final concentration of membranes 35 ng/μL final and Final concentration of SPA beads was 0.05 mg/well. Test-compounds were dissolved in DMSO and further diluted in assay buffer (50 mM Hepes, pH 7.4, 1 mM CaCl2, 5 mM MgCl₂, 0.1% OA and 0.02% Tween20). […] The final mixture was incubated for 120 min with shaking at 400 rpm at 25° C. prior to centrifugation (1500 rpm, 10 min). Samples were analyzed on TopCounter™ (Packard). The […] was calculated using (one site binding competition analysis) GraphPad Prism5 as a measure of receptor affinity.

[2] = molecular target: T1, human calcitonin receptor; test: IC50 at hCTR divided by IC50 at hAmylin-R (SPA competition assays V and VII)
Description: The resulting pellet was resuspended, homogenized and centrifuged (20.000 rpm, 15 min) in a buffer containing 20 mM Na-HEPES and 0.1 mM EDTA (pH 7.4, buffer 2). The resulting pellet was resuspended in buffer 2 and protein concentration was measured (BCA protein Assay, Pierce). The homogenate was kept cold during the whole procedure. The membranes were kept at −80° C. until use. The assay was performed in a 384 well Optiplate (PerkinElmer) in a total volume of 40 ul. Membranes were mixed with SPA beads. Final concentration of membranes 35 ng/μL final and SPA beads was 0.05 mg/well. Test-compounds were dissolved in DMSO and further diluted in assay buffer (50 mM Hepes, pH 7.4, 1 mM CaCl2, 5 mM MgCl₂, 0.1% OA and 0.02% Tween20). […] The final mixture was incubated with shaking at 400 rpm for 120 min at 25° C. prior to centrifugation (1500 rpm, 10 min). Samples were analyzed on TopCounter™ (Packard). The IC₅₀ was calculated using (one site binding competition analysis) GraphPad Prism5 as a measure of receptor affinity.
Membranes were prepared in the following way; the cells were rinsed with PBS and incubated with Versene for approximately 5 min before harvesting. The cells were flushed with PBS and the cell-suspension was centrifuged for 5 min at 1000 rpm. Cells were homogenized (Ultrathurrax) in a buffer containing 20 mM Na-HEPES and 10 mM EDTA (pH 7.4) and centrifuged at 20.000 rpm for 15 min. The resulting pellet was resuspended, homogenized and centrifuged (20.000 rpm, 15 min) in a buffer containing 20 mM Na-HEPES and 0.1 mM EDTA (pH 7.4, buffer 2). The resulting pellet was resuspended in buffer 2 and protein concentration was measured (BCA protein Assay, Pierce). The homogenate was kept cold during the whole procedure. The membranes were kept at −80° C. until use. Assay was performed in a 384 well Optiplate (PerkinElmer) in a total volume of 40 ul. Membranes were mixed with SPA beads.

| Binder | IC50 [1] | Ratio hCT/hAmylin binding [2] |
| --- | --- | --- |
| K([AEEA-γGlu-C20 diacid])CNTATCATQRLARFLRHSSPNFGAIPSSTPVGSNTY-NH2 (disulfide 2-7; N-terminus assumed; SMILES CC[C@H](C)[C@H](NC(=O)[C@H](C)NC(=O)CNC(=O)[C@H](Cc1ccccc1)NC(=O)[C@H](CC(N)=O)NC(=O)[C@@H]1CCCN1C(=O)[C@H](CO)NC(=O)[C@H](CO)NC(=O)[C@H](Cc1c[nH]cn1)NC(=O)[C@H](CCCNC(=N)N)NC(=O)[C@H](CC(C)C)NC(=O)[C@H](Cc1ccccc1)NC(=O)[C@H](CCCNC(=N)N)NC(=O)[C@H](C)NC(=O)[C@H](CC(C)C)NC(=O)[C@H](CCCNC(=N)N)NC(=O)[C@H](CCC(N)=O)NC(=O)[C@@H](NC(=O)[C@H](C)NC(=O)[C@@H]1CSSC[C@H](NC(=O)[C@@H](N)CCCCNC(=O)COCCOCCNC(=O)CC[C@H](NC(=O)CCCCCCCCCCCCCCCCCCC(=O)O)C(=O)O)C(=O)N[C@@H](CC(N)=O)C(=O)N[C@@H]([C@@H](C)O)C(=O)N[C@@H](C)C(=O)N[C@@H]([C@@H](C)O)C(=O)N1)[C@@H](C)O)C(=O)N1CCC[C@H]1C(=O)N[C@@H](CO)C(=O)N[C@@H](CO)C(=O)N[C@H](C(=O)N1CCC[C@H]1C(=O)N[C@H](C(=O)NCC(=O)N[C@@H](CO)C(=O)N[C@@H](CC(N)=O)C(=O)N[C@H](C(=O)N[C@@H](Cc1ccc(O)cc1)C(N)=O)[C@@H](C)O)C(C)C)[C@@H](C)O, also called compound 64) | 56 nM | 126 |
| K([AEEA-γGlu-C20 diacid])CNTATCATQRLANFLRHSSPNFGAIPSSTNVGRNTY-NH2 (disulfide 2-7; N-terminus assumed; SMILES CC[C@H](C)[C@H](NC(=O)[C@H](C)NC(=O)CNC(=O)[C@H](Cc1ccccc1)NC(=O)[C@H](CC(N)=O)NC(=O)[C@@H]1CCCN1C(=O)[C@H](CO)NC(=O)[C@H](CO)NC(=O)[C@H](Cc1c[nH]cn1)NC(=O)[C@H](CCCNC(=N)N)NC(=O)[C@H](CC(C)C)NC(=O)[C@H](Cc1ccccc1)NC(=O)[C@H](CC(N)=O)NC(=O)[C@H](C)NC(=O)[C@H](CC(C)C)NC(=O)[C@H](CCCNC(=N)N)NC(=O)[C@H](CCC(N)=O)NC(=O)[C@@H](NC(=O)[C@H](C)NC(=O)[C@@H]1CSSC[C@H](NC(=O)[C@@H](N)CCCCNC(=O)COCCOCCNC(=O)CC[C@H](NC(=O)CCCCCCCCCCCCCCCCCCC(=O)O)C(=O)O)C(=O)N[C@@H](CC(N)=O)C(=O)N[C@@H]([C@@H](C)O)C(=O)N[C@@H](C)C(=O)N[C@@H]([C@@H](C)O)C(=O)N1)[C@@H](C)O)C(=O)N1CCC[C@H]1C(=O)N[C@@H](CO)C(=O)N[C@@H](CO)C(=O)N[C@H](C(=O)N[C@@H](CC(N)=O)C(=O)N[C@H](C(=O)NCC(=O)N[C@@H](CCCNC(=N)N)C(=O)N[C@@H](CC(N)=O)C(=O)N[C@H](C(=O)N[C@@H](Cc1ccc(O)cc1)C(N)=O)[C@@H](C)O)C(C)C)[C@@H](C)O, also called compound 78) | 36.5 nM | 60.7 |
| K([AEEA-γGlu-C20 diacid])CNTATCATQRLARFLRHSSPNFGAIPSSTNVGSNTY-NH2 (disulfide 2-7; N-terminus assumed; SMILES CC[C@H](C)[C@H](NC(=O)[C@H](C)NC(=O)CNC(=O)[C@H](Cc1ccccc1)NC(=O)[C@H](CC(N)=O)NC(=O)[C@@H]1CCCN1C(=O)[C@H](CO)NC(=O)[C@H](CO)NC(=O)[C@H](Cc1c[nH]cn1)NC(=O)[C@H](CCCNC(=N)N)NC(=O)[C@H](CC(C)C)NC(=O)[C@H](Cc1ccccc1)NC(=O)[C@H](CCCNC(=N)N)NC(=O)[C@H](C)NC(=O)[C@H](CC(C)C)NC(=O)[C@H](CCCNC(=N)N)NC(=O)[C@H](CCC(N)=O)NC(=O)[C@@H](NC(=O)[C@H](C)NC(=O)[C@@H]1CSSC[C@H](NC(=O)[C@@H](N)CCCCNC(=O)COCCOCCNC(=O)CC[C@H](NC(=O)CCCCCCCCCCCCCCCCCCC(=O)O)C(=O)O)C(=O)N[C@@H](CC(N)=O)C(=O)N[C@@H]([C@@H](C)O)C(=O)N[C@@H](C)C(=O)N[C@@H]([C@@H](C)O)C(=O)N1)[C@@H](C)O)C(=O)N1CCC[C@H]1C(=O)N[C@@H](CO)C(=O)N[C@@H](CO)C(=O)N[C@H](C(=O)N[C@@H](CC(N)=O)C(=O)N[C@H](C(=O)NCC(=O)N[C@@H](CO)C(=O)N[C@@H](CC(N)=O)C(=O)N[C@H](C(=O)N[C@@H](Cc1ccc(O)cc1)C(N)=O)[C@@H](C)O)C(C)C)[C@@H](C)O, also called compound 82) | 88.8 nM | 140 |
| K([AEEA-γGlu-C20 diacid])CNTATCATQRLANFLRHSSPNFGAIPSSTNVGHNTY-NH2 (disulfide 2-7; N-terminus assumed; SMILES CC[C@H](C)[C@H](NC(=O)[C@H](C)NC(=O)CNC(=O)[C@H](Cc1ccccc1)NC(=O)[C@H](CC(N)=O)NC(=O)[C@@H]1CCCN1C(=O)[C@H](CO)NC(=O)[C@H](CO)NC(=O)[C@H](Cc1c[nH]cn1)NC(=O)[C@H](CCCNC(=N)N)NC(=O)[C@H](CC(C)C)NC(=O)[C@H](Cc1ccccc1)NC(=O)[C@H](CC(N)=O)NC(=O)[C@H](C)NC(=O)[C@H](CC(C)C)NC(=O)[C@H](CCCNC(=N)N)NC(=O)[C@H](CCC(N)=O)NC(=O)[C@@H](NC(=O)[C@H](C)NC(=O)[C@@H]1CSSC[C@H](NC(=O)[C@@H](N)CCCCNC(=O)COCCOCCNC(=O)CC[C@H](NC(=O)CCCCCCCCCCCCCCCCCCC(=O)O)C(=O)O)C(=O)N[C@@H](CC(N)=O)C(=O)N[C@@H]([C@@H](C)O)C(=O)N[C@@H](C)C(=O)N[C@@H]([C@@H](C)O)C(=O)N1)[C@@H](C)O)C(=O)N1CCC[C@H]1C(=O)N[C@@H](CO)C(=O)N[C@@H](CO)C(=O)N[C@H](C(=O)N[C@@H](CC(N)=O)C(=O)N[C@H](C(=O)NCC(=O)N[C@@H](Cc1c[nH]cn1)C(=O)N[C@@H](CC(N)=O)C(=O)N[C@H](C(=O)N[C@@H](Cc1ccc(O)cc1)C(N)=O)[C@@H](C)O)C(C)C)[C@@H](C)O, also called compound 76) | 17.2 nM | 80 |
| K([AEEA-γGlu-C20 diacid])CNTATCATQRLANFLRHSSPNFGAIPPSTPVGSNTY-NH2 (disulfide 2-7, also called compound 53) | 5.38 nM | 104 |
